Results reported in the supplement of paper PMC6379048.

What was measured:
Assay in all cases: Kd (EC50 corrected by depletion factor)
[1] = target: SRRM2 (UniProt Q9UQ35)
Method in brief: (§1)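 To obtain EC50, data were fitted with a four-parameter log-logistic model; Kd was then EC50 multiplied by a protein-dependent depletion factor. Beforehand, free RNA oligos (0 nM to 30 μM) were pre-incubated with HEK293-FT lysate (2.5 mg protein/well) for 1 h at 4°C. The lysate then spent 30 min at 4°C with the same 5′-amino-C6 oligos coupled to NHS-Sepharose beads, and bound proteins were quantified by label-free LC-MS/MS, normalised to the control.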

[2] = target: T1, U2AF1 (UniProt Q01081)
T1 sequence: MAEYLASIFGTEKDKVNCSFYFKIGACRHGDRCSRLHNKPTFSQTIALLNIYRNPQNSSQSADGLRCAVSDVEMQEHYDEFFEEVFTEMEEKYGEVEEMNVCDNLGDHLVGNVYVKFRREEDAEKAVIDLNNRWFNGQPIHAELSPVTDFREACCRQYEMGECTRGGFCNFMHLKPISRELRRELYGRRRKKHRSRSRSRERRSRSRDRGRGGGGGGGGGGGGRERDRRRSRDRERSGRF
Method in brief: as §1

[3] = target: T2, TSNAX (UniProt Q99598)
T2 sequence: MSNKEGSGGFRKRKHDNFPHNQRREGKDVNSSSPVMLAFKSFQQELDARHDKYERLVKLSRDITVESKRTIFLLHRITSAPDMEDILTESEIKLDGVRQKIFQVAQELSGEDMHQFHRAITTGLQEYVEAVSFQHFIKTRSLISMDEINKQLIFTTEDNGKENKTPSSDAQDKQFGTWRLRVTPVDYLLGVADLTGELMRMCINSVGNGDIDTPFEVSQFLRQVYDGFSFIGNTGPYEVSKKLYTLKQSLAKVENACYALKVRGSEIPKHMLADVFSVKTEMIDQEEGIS
Method in brief: as §1

[4] = target: TUBB4B (UniProt P68371)
Method in brief: as §1

[5] = target: T3, GPALPP1 (UniProt Q8IXQ4)
T3 sequence: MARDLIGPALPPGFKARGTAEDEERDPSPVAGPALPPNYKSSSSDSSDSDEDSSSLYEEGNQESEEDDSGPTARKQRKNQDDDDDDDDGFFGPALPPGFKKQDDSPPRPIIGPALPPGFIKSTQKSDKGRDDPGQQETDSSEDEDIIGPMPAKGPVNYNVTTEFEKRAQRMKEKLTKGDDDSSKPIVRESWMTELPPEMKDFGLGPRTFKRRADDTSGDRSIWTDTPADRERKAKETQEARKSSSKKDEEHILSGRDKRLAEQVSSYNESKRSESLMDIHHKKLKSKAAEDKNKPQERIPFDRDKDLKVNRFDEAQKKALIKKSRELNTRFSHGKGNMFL
Method in brief: as §1

[6] = target: CPSF4 (UniProt O95639)
Method in brief: as §1

[7] = target: T4, C1QBP (UniProt Q07021)
T4 sequence: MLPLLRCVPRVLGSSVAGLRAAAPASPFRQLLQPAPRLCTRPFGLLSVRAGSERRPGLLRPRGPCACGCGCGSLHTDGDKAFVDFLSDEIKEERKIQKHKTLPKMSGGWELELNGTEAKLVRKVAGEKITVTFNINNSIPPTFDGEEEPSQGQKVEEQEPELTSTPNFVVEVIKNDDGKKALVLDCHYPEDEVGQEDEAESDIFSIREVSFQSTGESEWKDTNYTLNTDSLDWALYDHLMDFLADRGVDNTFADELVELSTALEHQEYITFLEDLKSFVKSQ
Method in brief: as §1

[8] = target: SF3B6 (UniProt Q9Y3B4)
Method in brief: as §1

[9] = target: MRPL43 (UniProt Q8N983)
Method in brief: as §1

[10] = target: GNB2L1 (UniProt P63244)
Method in brief: as §1

[11] = target: MRPL11 (UniProt Q9Y3B7)
Method in brief: as §1

[12] = target: MRPL17 (UniProt Q9NRX2)
Method in brief: as §1

[13] = target: MRPL49 (UniProt Q13405)
Method in brief: as §1

[14] = target: PCBP2 (UniProt Q15366)
Method in brief: as §1

[15] = target: MRPS28 (UniProt Q9Y2Q9)
Method in brief: as §1

[16] = target: MRPS9 (UniProt P82933)
Method in brief: as §1

[17] = target: MRPS25 (UniProt P82663)
Method in brief: as §1

[18] = target: T5, PRPF31 (UniProt Q8WWY3)
T5 sequence: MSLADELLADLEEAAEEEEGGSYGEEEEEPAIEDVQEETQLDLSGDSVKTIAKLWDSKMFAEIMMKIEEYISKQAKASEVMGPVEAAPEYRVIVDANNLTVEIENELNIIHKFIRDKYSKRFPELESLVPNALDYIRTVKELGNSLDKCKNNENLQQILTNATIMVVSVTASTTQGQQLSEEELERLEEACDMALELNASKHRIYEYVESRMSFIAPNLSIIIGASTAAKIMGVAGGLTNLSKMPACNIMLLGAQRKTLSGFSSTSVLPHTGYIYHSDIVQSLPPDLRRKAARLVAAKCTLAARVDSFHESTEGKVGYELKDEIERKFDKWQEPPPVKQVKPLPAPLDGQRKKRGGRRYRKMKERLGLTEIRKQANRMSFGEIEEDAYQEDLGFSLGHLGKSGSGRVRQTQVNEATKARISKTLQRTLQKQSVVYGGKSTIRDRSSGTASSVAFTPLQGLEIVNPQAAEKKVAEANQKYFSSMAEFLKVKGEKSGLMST
Method in brief: as §1

[19] = target: TOE1 (UniProt Q96GM8)
Method in brief: as §1

Chain of PCBP2 (Q15366 whole entry): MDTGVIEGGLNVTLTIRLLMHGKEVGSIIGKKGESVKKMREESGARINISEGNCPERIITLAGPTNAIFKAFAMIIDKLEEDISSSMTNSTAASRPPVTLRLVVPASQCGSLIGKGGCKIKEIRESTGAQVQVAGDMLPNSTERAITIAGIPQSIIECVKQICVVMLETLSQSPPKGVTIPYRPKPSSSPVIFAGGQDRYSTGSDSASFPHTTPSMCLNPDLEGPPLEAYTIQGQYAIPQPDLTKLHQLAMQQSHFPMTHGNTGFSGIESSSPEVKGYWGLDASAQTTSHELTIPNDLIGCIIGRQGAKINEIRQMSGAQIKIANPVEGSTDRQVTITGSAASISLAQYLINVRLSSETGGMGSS
Chain of SF3B6 (Q9Y3B4 whole entry): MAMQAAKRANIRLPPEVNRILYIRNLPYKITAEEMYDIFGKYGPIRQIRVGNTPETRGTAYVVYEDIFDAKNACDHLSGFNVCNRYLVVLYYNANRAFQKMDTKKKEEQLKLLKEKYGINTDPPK
Chain of SRRM2 (Q9UQ35 whole entry): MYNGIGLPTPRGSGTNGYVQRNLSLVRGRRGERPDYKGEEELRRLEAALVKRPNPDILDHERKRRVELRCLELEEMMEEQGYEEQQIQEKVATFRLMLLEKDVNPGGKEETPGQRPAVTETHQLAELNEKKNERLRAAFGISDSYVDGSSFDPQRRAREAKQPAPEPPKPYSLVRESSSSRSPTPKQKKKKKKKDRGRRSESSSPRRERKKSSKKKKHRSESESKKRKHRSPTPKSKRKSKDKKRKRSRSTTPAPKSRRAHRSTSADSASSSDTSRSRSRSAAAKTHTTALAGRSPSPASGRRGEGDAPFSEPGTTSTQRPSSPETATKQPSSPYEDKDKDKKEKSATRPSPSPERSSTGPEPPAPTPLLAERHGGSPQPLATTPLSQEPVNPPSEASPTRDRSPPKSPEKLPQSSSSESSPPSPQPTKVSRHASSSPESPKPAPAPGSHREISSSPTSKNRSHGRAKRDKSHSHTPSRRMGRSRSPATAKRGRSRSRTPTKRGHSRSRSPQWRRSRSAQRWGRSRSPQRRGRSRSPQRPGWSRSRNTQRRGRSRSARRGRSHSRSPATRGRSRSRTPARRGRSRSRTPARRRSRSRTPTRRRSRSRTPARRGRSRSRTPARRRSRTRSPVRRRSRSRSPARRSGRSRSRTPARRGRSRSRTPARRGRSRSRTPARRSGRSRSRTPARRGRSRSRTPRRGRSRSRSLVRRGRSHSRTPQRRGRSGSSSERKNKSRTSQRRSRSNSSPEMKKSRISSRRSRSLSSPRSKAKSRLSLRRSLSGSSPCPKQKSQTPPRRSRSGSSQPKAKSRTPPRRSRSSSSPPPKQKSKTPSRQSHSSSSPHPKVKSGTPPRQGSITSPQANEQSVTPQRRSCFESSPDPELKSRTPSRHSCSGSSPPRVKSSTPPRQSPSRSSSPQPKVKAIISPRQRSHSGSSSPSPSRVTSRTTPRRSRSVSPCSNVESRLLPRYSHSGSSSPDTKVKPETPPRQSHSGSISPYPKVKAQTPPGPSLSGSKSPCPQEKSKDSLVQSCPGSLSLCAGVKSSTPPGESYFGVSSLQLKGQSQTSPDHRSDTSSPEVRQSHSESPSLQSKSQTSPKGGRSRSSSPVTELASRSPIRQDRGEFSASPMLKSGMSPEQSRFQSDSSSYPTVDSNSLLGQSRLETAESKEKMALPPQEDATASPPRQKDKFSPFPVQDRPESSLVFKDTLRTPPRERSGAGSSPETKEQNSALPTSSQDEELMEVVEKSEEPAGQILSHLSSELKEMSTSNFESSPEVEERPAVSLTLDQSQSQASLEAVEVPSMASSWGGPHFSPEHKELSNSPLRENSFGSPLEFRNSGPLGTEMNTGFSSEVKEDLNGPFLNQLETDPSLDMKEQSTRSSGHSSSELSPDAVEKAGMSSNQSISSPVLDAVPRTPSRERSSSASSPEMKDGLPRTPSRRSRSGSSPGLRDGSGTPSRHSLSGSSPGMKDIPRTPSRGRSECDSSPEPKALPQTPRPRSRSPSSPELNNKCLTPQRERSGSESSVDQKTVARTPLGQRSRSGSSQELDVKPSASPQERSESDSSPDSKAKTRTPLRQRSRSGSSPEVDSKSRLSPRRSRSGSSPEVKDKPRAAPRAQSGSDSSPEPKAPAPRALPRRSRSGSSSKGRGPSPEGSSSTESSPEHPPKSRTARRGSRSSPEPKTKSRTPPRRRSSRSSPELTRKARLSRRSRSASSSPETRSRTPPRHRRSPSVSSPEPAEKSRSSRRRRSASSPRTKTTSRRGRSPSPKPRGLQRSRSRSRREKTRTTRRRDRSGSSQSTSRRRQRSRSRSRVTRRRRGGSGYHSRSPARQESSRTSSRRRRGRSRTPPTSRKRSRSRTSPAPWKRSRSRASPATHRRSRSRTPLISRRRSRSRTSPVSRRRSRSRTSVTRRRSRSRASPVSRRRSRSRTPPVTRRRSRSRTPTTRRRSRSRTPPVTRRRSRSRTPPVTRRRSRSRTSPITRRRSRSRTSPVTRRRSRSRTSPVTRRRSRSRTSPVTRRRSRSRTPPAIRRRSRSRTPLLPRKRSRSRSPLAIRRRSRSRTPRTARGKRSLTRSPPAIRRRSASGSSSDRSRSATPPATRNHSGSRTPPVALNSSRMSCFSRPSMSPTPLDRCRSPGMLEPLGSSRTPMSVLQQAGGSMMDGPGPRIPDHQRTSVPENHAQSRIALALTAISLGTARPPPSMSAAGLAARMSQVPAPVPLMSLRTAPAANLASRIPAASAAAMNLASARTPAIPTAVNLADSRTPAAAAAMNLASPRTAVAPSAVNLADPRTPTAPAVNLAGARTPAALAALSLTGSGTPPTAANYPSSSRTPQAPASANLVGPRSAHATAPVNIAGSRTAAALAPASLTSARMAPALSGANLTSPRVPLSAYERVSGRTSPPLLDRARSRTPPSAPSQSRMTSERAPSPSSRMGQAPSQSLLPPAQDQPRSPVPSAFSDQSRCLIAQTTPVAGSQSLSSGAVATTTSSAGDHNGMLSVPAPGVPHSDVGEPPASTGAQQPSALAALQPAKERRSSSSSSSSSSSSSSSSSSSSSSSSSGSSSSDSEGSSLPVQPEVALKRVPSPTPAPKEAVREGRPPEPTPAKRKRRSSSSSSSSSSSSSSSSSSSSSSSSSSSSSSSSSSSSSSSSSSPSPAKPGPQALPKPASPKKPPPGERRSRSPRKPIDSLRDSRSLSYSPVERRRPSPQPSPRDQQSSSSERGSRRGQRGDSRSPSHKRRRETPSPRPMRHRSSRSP
Chain of TUBB4B (P68371 whole entry): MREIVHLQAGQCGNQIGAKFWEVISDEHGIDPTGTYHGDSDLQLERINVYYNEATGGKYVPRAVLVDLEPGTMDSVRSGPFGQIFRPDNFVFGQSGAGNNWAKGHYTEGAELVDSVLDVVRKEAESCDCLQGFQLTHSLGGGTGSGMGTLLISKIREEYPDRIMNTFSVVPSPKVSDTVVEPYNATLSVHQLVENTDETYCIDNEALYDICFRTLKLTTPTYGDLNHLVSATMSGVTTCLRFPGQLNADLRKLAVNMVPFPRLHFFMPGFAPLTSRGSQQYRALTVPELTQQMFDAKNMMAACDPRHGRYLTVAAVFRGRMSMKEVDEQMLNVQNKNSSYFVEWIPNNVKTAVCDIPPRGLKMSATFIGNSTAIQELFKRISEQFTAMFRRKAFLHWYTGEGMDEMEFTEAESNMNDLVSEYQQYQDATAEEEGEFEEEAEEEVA
Chain of CPSF4 (O95639 whole entry): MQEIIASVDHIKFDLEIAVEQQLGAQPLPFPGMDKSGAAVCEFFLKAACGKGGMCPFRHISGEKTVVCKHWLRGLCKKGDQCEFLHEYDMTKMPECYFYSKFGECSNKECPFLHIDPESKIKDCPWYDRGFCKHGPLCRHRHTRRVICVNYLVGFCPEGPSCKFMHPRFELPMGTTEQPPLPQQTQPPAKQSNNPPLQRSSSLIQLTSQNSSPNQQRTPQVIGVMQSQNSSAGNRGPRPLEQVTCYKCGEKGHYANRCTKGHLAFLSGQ

AAUAAA
Kd [1]: 367 nM | Kd [2]: 202 nM | Kd [3]: 5.96 nM | Kd [4]: 2430 nM | Kd [5]: 33 nM | Kd [6]: 5.95 nM | Kd [7]: 477 nM | Kd [8]: 2270 nM

CUGUCCU
Kd [9]: 40.4 nM | Kd [10]: 808 nM | Kd [11]: 53.7 nM | Kd [12]: 20.4 nM | Kd [13]: 37 nM | Kd [14]: 1240 nM

UAUUUAU
Kd [15]: 15.9 nM | Kd [16]: 27.1 nM | Kd [17]: 12.4 nM | Kd [18]: 2850 nM | Kd [19]: 1020 nM
